The labels stand for the following.
B1: rFluA-20 heavy chain mutant Y34A (antibody, V domains shown)
VH: QVQLQESGPGLVKPSETLSLTCSVSGVSVTSDIAYWTWIRQPPGKGLEWIGYIFYNGDTNYNPSLKSRVTMSIDTSKNEFSLRLTSVTAADTAVYFCARGTEDLGYCSSGSCPNHWGQGTLVTVSS
VL: DIQMTQSPSSLSASIGDRVTITCRPSQNIRSFLNWFQHKPGKAPKLLIYAASNLQSGVPSRFSGSGSGTEFTLTIRSLQPEDFATYYCQQSYNTPPTFGQGTKVEIK
B2: rFluA-20 heavy chain mutant E97A (antibody, V domains shown)
VH: B1 VH with A34Y, E102A
VL: B1 VL
B3: rFluA-20 heavy chain mutant T96A (antibody, V domains shown)
VH: B1 VH with A34Y, T101A
VL: B1 VL

Changes are numbered by the printed parent chain. Numbers in names are those of the source.

One experiment concerns the target HA of A/Solomon Islands/03/2006 (H1N1) (influenza A virus (H1N1)).
One may read the EC50 as the midpoint of the concentration-response curve. The low end stands for an effect from little substance, the high end for a need for much substance. B1 returned a concentration for a half-maximal effect (EC50) of 0.04 µg/mL.

On to B2, for which the 50% effective concentration (EC50) came to 0.07 µg/mL.

Consider B3, for which the EC50 was 0.03 µg/mL.

The target in the next experiment is HA of A/Texas/36/1991 (H1N1) (influenza A virus (H1N1)).
Take B1: the 50% effective concentration (EC50) was determined as 0.05 µg/mL.

In turn, B2 gave a 50% effective concentration (EC50) of 0.05 µg/mL.

Molecule B3 registered a half-maximal effective concentration (EC50) of 0.04 µg/mL.

The target in the next experiment is HA of A/Texas/50/2012 (H3N2) (influenza A virus (H3N2)).
B1 had an EC50 of 0.16 µg/mL.

In the case of B2, the EC50 was found to be 0.18 µg/mL.

For B3, the half-maximal effective concentration (EC50) stood at 0.07 µg/mL.

The record behind these values is patent US20210252150A1.
